Data published in the supplement of paper PMC12042874.
± gives the uncertainty stated by the source.

assay: amyloid nucleation score (Sup35N fusion, yeast selection) (log enrichment); library NNK3; higher = more nucleation; inactive = no reads after selection
Summary of the method: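 Psi-negative yeast expressed Sup35N fused to peptides of 20 random codons. They were induced 24 hours with 100 μM copper sulfate, grown 7 days at 30°C without adenine and uracil, and their plasmid inserts from input and output were Illumina-sequenced. The nucleation score is the DiMSum log enrichment of output over input reads, centred on the mode score of non-aggregating sequences. Sequences with under 100 input reads were excluded.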

Substance	amyloid nucleation score
ESSNNPFFDQAYIYIKFY	-0.42 ± 0.9
ESVNGTSFPVFIYHRTSFRL	1.61 ± 0.069
ESWKWYQYSVQWAWYEHPHS	inactive
ESWNRKVLRHVSVEWHWLV	inactive
ETDVHSYFVSLYSYPFAVEP	inactive
ETFVGLEVNWNSCNCFIVQE	1.87 ± 0.076
ETISFYLCLLYDVKLVNALM	-0.54 ± 0.68
EVCQCRPTTVSLARVGRIVV	inactive
EVEIRWPCLKVVFLFLVH	inactive
EVLYYRFLF	inactive
EVPGHSGQYSGVDYGYVWLA	inactive
EVRRRDLYLWKASETLLRLL	inactive
EVWRVSDSYSVDEIFVLLNL	inactive
EVYLETCRGILFCALDTIFG	-0.264 ± 1
EYGLNFSLNGYLSH	0.601 ± 0.32
EYSLTLPYFVGSALPPQNTC	inactive
FAAARSYFKLFHIYCDDVTG	1.96 ± 0.071
FADYFASSIFWYRCASHLGW	inactive
FAHVI	inactive
FALSWSSNGAALLRLELTTL	0.224 ± 0.44
FASIVFRCVLFTLFHPAVFR	inactive
FASYYHTVDRADFDDLDPAN	inactive
FAVQCWKAGVAKNYGMHFVC	inactive
FCCINKLDGLGVWETYCSYS	inactive
FCEDSRMSYKFYVSCIFAHS	0.636 ± 0.14
FCFDEEDVLRTGCNGDSYPG	inactive
FCGPFSYGRLTYGFWFRKRP	1.75 ± 0.11

Substance	amyloid nucleation score
FCIECYL	inactive
FCKLQYTGQS	inactive
FCRRSGSFVLDMTYWGMYRP	0.156 ± 0.32
FCSLIKYSQNYYNPLAHTVL	inactive
FCSRYWLYLCRALLNRVVMR	inactive
FCTGWSNGLVNHVDYKKGRN	inactive
FCYEHSLWLCLSYKVTVMRM	1.08 ± 0.15
FCYSDFIPLWIR	inactive
FDDLSARVPLTVTLWPSHTA	inactive
FDEDRREV	inactive
FDGNFGWARRVNAGDSLFMF	inactive
FDGTVVSR	inactive
FDGVGYATSIMEGNDSG	inactive
FDNFFYWSRKRD	inactive
FDRKYW	inactive
FDRYYVSPLRVLHQVGCEIL	inactive
FDSYRVYM	inactive
FDVVWL	inactive
FDWIQDHSQCGIIFTCVKLG	inactive
FEHPHGGVNS	inactive
FEIYECQLAC	inactive
FELPSVKGGCILPSQILP	-0.517 ± 0.73
FESLHSCV	inactive
FFARSHAVIINFFCTH	2.72 ± 0.066
FFCNLSSILRWGN	0.572 ± 0.18
FFDTTYLLNSGMNVVLDAYF	1.76 ± 0.097
FFFFTLKTSVQADLHDMLSQ	0.792 ± 0.16

Substance	amyloid nucleation score
FFFLNSWVFYVLMNNDIVCA	inactive
FFFLWGAP	inactive
FFFTSKSLGPVTLTLISVSD	inactive
FFIDQLKEFSHY	inactive
FFIDYIHTYRYESSASMS	inactive
FFKSLRV	inactive
FFKVSPMYY	inactive
FFLIEQFYTYWMGGIMMIQR	inactive
FFLTLGYVVGYQRWSYILWR	inactive
FFNVMVS	inactive
FFQDQFVDWLDYTVLRI	inactive
FFREYTSSRQMNICYLSFHG	inactive
FFRQQKYSVCLFGGTFIWVV	inactive
FFSDTYSNTSPM	inactive
FFSSDDMWRYWMFSYSDNSI	inactive
FFSSFPFKIIEMLSFEGSFR	inactive
FFVKYVLEKCAWKY	inactive
FGFCCKAPCVGSLWVPSVVT	inactive
FGHIGQRRSFVIHLMHDGSP	inactive
FGILSDIVCSTVVKNCDL	inactive
FGIWCTIPWLLFRYSVDMFM	inactive
FGMPCFSSEYLLTCMVVLTG	inactive
FGMSQKSSRGWGLNV	inactive
FGRQVSDGVASFMSNTSLYR	inactive
FGTEDK	inactive
